Data from US20160376333A1 (University of Washington, published 2016).

Columns and labels:
[1] = biological target: T1, human Mcl-1 a.a. 172-327 with C-terminal avi-6his tag (human); assay: ratio of the KD of the next tightest BCL2 protein to the KD of the target, BLI
T1 chain: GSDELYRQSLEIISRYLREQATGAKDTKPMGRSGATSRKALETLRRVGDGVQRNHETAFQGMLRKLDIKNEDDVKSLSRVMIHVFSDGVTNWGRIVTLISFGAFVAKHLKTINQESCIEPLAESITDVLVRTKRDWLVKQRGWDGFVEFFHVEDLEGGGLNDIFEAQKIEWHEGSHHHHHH

[2] = biological target: T2, human Bfl-1 a.a. 1-153 (C4S) with C-terminal avi-6his tag (human); assay: BLI, biotinylated target on streptavidin sensor, range of analyte concentrations
T2 construct: also called A1/Bfl-1
T2 chain: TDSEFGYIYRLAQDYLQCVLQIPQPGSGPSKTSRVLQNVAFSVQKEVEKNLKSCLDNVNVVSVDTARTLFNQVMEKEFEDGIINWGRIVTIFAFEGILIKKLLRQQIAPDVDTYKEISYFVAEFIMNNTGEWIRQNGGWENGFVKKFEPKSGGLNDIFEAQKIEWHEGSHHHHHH

[3] = biological target: T3, human Bcl-w a.a. 1-182 with C-terminal avi-6his tag (human, UniProt Q92843 1-182); assay: as above
T3 construct: range 1-182; also called BCL2L2
T3 sequence: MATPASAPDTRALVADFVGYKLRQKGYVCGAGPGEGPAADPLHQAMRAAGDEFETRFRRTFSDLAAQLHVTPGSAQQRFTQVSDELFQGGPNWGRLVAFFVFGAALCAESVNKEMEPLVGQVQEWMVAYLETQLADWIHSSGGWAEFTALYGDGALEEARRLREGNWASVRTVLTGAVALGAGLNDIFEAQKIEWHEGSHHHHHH

[4] = biological target: T4, human Bcl-B a.a. 11-175 with C-terminal avi-6his tag (human); assay: as above
T4 construct: also called BCL2L10
T4 chain: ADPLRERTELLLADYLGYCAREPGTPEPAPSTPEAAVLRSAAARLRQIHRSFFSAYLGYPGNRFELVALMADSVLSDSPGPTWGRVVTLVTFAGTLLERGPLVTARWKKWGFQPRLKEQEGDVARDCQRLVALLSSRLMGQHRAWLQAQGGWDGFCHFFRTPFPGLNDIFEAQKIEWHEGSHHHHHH

[5] = biological target: T1, human Mcl-1 a.a. 172-327 with …; assay: as above
[6] = biological target: T5, human Bcl-2 a.a. 1-207 with C-terminal avi-6his tag (human, UniProt P10415 2-207); assay: as above
Target sequence in this assay (P10415 other isoform, or with tags, fused parts or gaps limits assumed): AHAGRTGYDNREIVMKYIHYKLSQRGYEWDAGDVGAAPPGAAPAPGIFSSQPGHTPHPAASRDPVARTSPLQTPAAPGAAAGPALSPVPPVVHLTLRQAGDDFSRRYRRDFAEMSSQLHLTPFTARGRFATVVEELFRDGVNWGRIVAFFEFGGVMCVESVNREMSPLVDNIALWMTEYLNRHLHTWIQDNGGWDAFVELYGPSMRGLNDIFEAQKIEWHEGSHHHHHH

[7] = biological target: T6, human Bcl-XL a.a. 1-205 with C-terminal avi-6his tag (human, UniProt Q07817 2-206); assay: as above
T6 construct: also called BCL2L1
Target sequence in this assay (Q07817 other isoform, or with tags, fused parts or gaps limits assumed): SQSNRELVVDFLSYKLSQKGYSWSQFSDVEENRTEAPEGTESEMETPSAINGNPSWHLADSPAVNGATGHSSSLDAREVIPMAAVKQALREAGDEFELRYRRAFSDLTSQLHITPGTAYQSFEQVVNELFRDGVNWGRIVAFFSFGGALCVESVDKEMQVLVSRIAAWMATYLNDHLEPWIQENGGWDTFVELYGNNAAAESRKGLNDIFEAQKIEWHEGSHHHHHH

[8] = biological target: Mcl-1 in human cancer cell lines (HeLa, colon cancer lines) (human, UniProt Q07820 1-350); assay: cell-based or functional assay
[9] = biological target: T2, human Bfl-1 a.a. 1-153 (C4S) with …; assay: BLI at a single analyte concentration (50 nM, 600 s association, then buffer); biotinylated BCL2 protein on a streptavidin sensor
[10] = biological target: T3, human Bcl-w a.a. 1-182 with C-terminal …; assay: as above
[11] = biological target: T4, human Bcl-B a.a. 11-175 with C-terminal …; assay: as above
[12] = biological target: T1, human Mcl-1 a.a. 172-327 with …; assay: as above
[13] = biological target: T5, human Bcl-2 a.a. 1-207 with C-terminal …; assay: as above
[14] = biological target: T6, human Bcl-XL a.a. 1-205 with C-terminal …; assay: as above
[15] = biological target: T2, human Bfl-1 a.a. 1-153 (C4S) with …; assay: BLI, biotinylated target on streptavidin sensor
[16] = biological target: T3, human Bcl-w a.a. 1-182 with C-terminal …; assay: BLI, biotinylated target on streptavidin sensor
[17] = biological target: T4, human Bcl-B a.a. 11-175 with C-terminal …; assay: BLI, biotinylated target on streptavidin sensor
[18] = biological target: T7, Epstein-Barr virus BHRF1 a.a. 1-161 with C-terminal avi-6his tag (Epstein-Barr virus); assay: BLI, biotinylated target on streptavidin sensor
T7 construct: also called EBV BHRF1; BHRF1-biotin
T7 chain: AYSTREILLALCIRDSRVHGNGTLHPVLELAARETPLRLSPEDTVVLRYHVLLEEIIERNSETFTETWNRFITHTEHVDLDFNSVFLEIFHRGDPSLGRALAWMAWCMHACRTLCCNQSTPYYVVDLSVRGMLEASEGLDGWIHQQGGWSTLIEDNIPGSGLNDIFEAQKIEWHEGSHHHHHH

[19] = biological target: T1, human Mcl-1 a.a. 172-327 with …; assay: BLI, biotinylated target on streptavidin sensor
[20] = biological target: T5, human Bcl-2 a.a. 1-207 with C-terminal …; assay: BLI, biotinylated target on streptavidin sensor
[21] = biological target: T6, human Bcl-XL a.a. 1-205 with C-terminal …; assay: BLI, biotinylated target on streptavidin sensor
[22] = biological target: T1, human Mcl-1 a.a. 172-327 with …; assay: BLI
[23] = biological target: T2, human Bfl-1 a.a. 1-153 (C4S) with …; assay: yeast surface display titration (apparent KD)
[24] = biological target: T3, human Bcl-w a.a. 1-182 with C-terminal …; assay: yeast surface display titration (apparent KD)
[25] = biological target: T7, Epstein-Barr virus BHRF1 a.a. 1-161 …; assay: yeast surface display titration (apparent KD)
[26] = biological target: T1, human Mcl-1 a.a. 172-327 with …; assay: yeast surface display titration (apparent KD)
[27] = biological target: T5, human Bcl-2 a.a. 1-207 with C-terminal …; assay: yeast surface display titration (apparent KD)
[28] = biological target: T6, human Bcl-XL a.a. 1-205 with C-terminal …; assay: yeast surface display titration (apparent KD)

Sequence of Mcl-1 in human cancer cell lines (HeLa, colon cancer lines) (Q07820 whole entry): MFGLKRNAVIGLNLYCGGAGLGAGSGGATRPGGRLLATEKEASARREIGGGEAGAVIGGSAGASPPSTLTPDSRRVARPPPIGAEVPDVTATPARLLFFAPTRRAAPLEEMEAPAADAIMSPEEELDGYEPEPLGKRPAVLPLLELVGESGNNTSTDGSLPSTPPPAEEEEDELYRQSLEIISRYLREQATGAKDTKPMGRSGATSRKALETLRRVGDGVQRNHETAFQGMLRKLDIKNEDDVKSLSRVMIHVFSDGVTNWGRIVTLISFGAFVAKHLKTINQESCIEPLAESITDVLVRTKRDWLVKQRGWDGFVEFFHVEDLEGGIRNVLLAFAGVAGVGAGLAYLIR

B1: MINDI (Mcl-1-inhibiting design acting intracellularly) (designed binder)
chain: ADPKKVLDKAKDQAENRVRELKQVLEELYKEARKLDLTQEMRKKLIERYAAAIIRAIGDINNAIYQAKQEAEKLKKAGLVNSQQLDELLRRLDELQKEASRKANEYGREFELKLEY
notes: also called M-CDP04; αMCL1
Specificity [1]: 93000 fold | Kd [2]: 30 µM | Kd [3]: 200 µM | Kd [4]: 40 µM | Kd [5]: 0.00015 µM | Kd [6]: 14.2 µM | Kd [7]: 400 µM | decrease of the EC50 of A-1331852 in colon cancer lines on expression of αMCL1 [8]: 4.6 fold

B2: M-CDP03 (designed binder)
chain: ADPKKVLDKAKDQAENRVRELKQDLERLYKEARKLDLTQEMRRKLQEKAAAAMIRAIGDINNAIYQALQEADKLKKAGLVNSQQLDELKRRLEELQKEASRKAQAYGEEFMLKLEY
binding result [9]: no binding (tested: 50 nM) | binding result [10]: no binding (tested: 50 nM) | binding result [11]: no binding (tested: 50 nM) | binding result [12]: binds | binding result [13]: no binding (tested: 50 nM) | binding result [14]: no binding (tested: 50 nM)

B3: BINDI N62S (designed binder)
chain: ADPKKVLDKAKDQAENRVRELKQKLEELYKEARKLDLTQEMRRKLELRYIAAMLMAIGDIYSAIRQAKQEADKLKKAGLVNSQQLDELKRRLEELKEEASRKARDYGREFQLKLEY
Kd [15]: 4 µM | Kd [16]: 4.6 µM | Kd [17]: 50 µM | Kd [18]: 0.00016 µM | Kd [19]: 0.23 µM | Kd [20]: 30 µM | Kd [21]: 8 µM | fold decrease of affinity relative to BINDI [22]: 6 fold

B4: BbpD04.2 (designed binder)
chain: ADWKKVLDKAKDIAENRVRELKQKLEEFYKEAMKLDLTQEMRRKLMLRWIAAMLMAIGDIFNAIRQAKQEADKLKKAGLVNSQQLDELKRRLEELKEEASRKCRDYGREFQLKLEY
Kd [23]: 0.07 µM | Kd [24]: 0.04 µM | Kd [25]: 0.0006 µM | Kd [26]: 0.026 µM | Kd [27]: 0.033 µM | Kd [28]: 0.031 µM
